Assay results: patent US20140087995A1 (published 2014)
Numbered stars: 1 amine (or outer) side, 2 acyl side, 3 side chain; on linkers, the order of the positions; unused ones are H or OH. Bridge positions count the residues as written; N and C are the ends. Side chains are listed from the residue outwards. Ends that are not written are not given here. * marks the point of attachment. C20 diacid = O=C(O)CCCCCCCCCCCCCCCCCCC(=O)*; γGlu = O=C(O)[C@H](CCC(=O)[*:2])N[*:1]; AEEA = NCCOCCOCC(=O)O

T1: human calcitonin receptor (human, UniProt P30988 25-474)
T1 construct: whole, on cells; Used as cell membranes prepared from the transfected BHK cells (Assay VII), not as intact cells; also called hCTR; hCT
T1 sequence (looked up): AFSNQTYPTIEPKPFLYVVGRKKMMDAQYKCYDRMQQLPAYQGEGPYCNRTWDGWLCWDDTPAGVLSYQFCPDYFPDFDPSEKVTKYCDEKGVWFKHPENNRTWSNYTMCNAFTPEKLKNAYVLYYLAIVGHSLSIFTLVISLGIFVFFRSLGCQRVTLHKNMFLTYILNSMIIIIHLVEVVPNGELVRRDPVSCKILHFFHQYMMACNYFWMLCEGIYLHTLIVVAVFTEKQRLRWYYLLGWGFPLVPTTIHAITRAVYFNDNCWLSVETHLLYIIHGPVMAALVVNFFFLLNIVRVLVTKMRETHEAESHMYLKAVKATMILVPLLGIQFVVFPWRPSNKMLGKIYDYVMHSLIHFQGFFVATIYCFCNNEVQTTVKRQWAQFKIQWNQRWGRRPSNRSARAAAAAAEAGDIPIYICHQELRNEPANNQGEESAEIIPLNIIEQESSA


Biological target: T1, human calcitonin receptor
Assay: SPA competition against 125I-calcitonin, membranes with human calcitonin receptor (Assay VII)
Experimental: Membranes were prepared in the following way; the cells were rinsed with PBS and incubated with Versene for approximately 5 min before harvesting. The cells were flushed with PBS and the cell-suspension was centrifuged for 5 min at 1000 rpm. Cells were homogenized (Ultrathurrax) in a buffer containing 20 mM Na-HEPES and 10 mM EDTA (pH 7.4) and centrifuged at 20.000 rpm for 15 min. The resulting pellet was resuspended, homogenized and centrifuged (20.000 rpm, 15 min) in a buffer containing 20 mM Na-HEPES and 0.1 mM EDTA (pH 7.4, buffer 2). The resulting pellet was resuspended in buffer 2 and protein concentration was measured (BCA protein Assay, Pierce). The homogenate was kept cold during the whole procedure. The membranes were kept at −80° C. until use. Assay was performed in a 384 well Optiplate (PerkinElmer) in a total volume of 40 ul. Membranes were mixed with SPA beads. Final concentration of membranes 35 ng/μL final and Final concentration of SPA beads was 0.05 mg/well. Test-compounds were dissolved in DMSO and further diluted in assay buffer (50 mM Hepes, pH 7.4, 1 mM CaCl2, 5 mM MgCl₂, 0.1% OA and 0.02% Tween20). […] The final mixture was incubated for 120 min with shaking at 400 rpm at 25° C. prior to centrifugation (1500 rpm, 10 min). Samples were analyzed on TopCounter™ (Packard). The […] was calculated using (one site binding competition analysis) GraphPad Prism5 as a measure of receptor affinity.

| IC50 | Binder |
| --- | --- |
| 17.1 nM | {C20 diacid-γGlu}-KCNTATCATQRLAEFLRHSSPNFGAIPSSTNVGSRTY-NH2 (disulfide 2-7; SMILES CC[C@H](C)[C@H](NC(=O)[C@H](C)NC(=O)CNC(=O)[C@H](Cc1ccccc1)NC(=O)[C@H](CC(N)=O)NC(=O)[C@@H]1CCCN1C(=O)[C@H](CO)NC(=O)[C@H](CO)NC(=O)[C@H](Cc1c[nH]cn1)NC(=O)[C@H](CCCNC(=N)N)NC(=O)[C@H](CC(C)C)NC(=O)[C@H](Cc1ccccc1)NC(=O)[C@H](CCC(=O)O)NC(=O)[C@H](C)NC(=O)[C@H](CC(C)C)NC(=O)[C@H](CCCNC(=N)N)NC(=O)[C@H](CCC(N)=O)NC(=O)[C@@H](NC(=O)[C@H](C)NC(=O)[C@@H]1CSSC[C@H](NC(=O)[C@H](CCCCN)NC(=O)CC[C@H](NC(=O)CCCCCCCCCCCCCCCCCCC(=O)O)C(=O)O)C(=O)N[C@@H](CC(N)=O)C(=O)N[C@@H]([C@@H](C)O)C(=O)N[C@@H](C)C(=O)N[C@@H]([C@@H](C)O)C(=O)N1)[C@@H](C)O)C(=O)N1CCC[C@H]1C(=O)N[C@@H](CO)C(=O)N[C@@H](CO)C(=O)N[C@H](C(=O)N[C@@H](CC(N)=O)C(=O)N[C@H](C(=O)NCC(=O)N[C@@H](CO)C(=O)N[C@@H](CCCNC(=N)N)C(=O)N[C@H](C(=O)N[C@@H](Cc1ccc(O)cc1)C(N)=O)[C@@H](C)O)C(C)C)[C@@H](C)O, also called compound 16) |
| 34.5 nM | K([γGlu-C20 diacid])CNTATCATQRLANFLRHSSPNFGAIPSSTNVGSETY-NH2 (disulfide 2-7; N-terminus assumed; SMILES CC[C@H](C)[C@H](NC(=O)[C@H](C)NC(=O)CNC(=O)[C@H](Cc1ccccc1)NC(=O)[C@H](CC(N)=O)NC(=O)[C@@H]1CCCN1C(=O)[C@H](CO)NC(=O)[C@H](CO)NC(=O)[C@H](Cc1c[nH]cn1)NC(=O)[C@H](CCCNC(=N)N)NC(=O)[C@H](CC(C)C)NC(=O)[C@H](Cc1ccccc1)NC(=O)[C@H](CC(N)=O)NC(=O)[C@H](C)NC(=O)[C@H](CC(C)C)NC(=O)[C@H](CCCNC(=N)N)NC(=O)[C@H](CCC(N)=O)NC(=O)[C@@H](NC(=O)[C@H](C)NC(=O)[C@@H]1CSSC[C@H](NC(=O)[C@@H](N)CCCCNC(=O)CC[C@H](NC(=O)CCCCCCCCCCCCCCCCCCC(=O)O)C(=O)O)C(=O)N[C@@H](CC(N)=O)C(=O)N[C@@H]([C@@H](C)O)C(=O)N[C@@H](C)C(=O)N[C@@H]([C@@H](C)O)C(=O)N1)[C@@H](C)O)C(=O)N1CCC[C@H]1C(=O)N[C@@H](CO)C(=O)N[C@@H](CO)C(=O)N[C@H](C(=O)N[C@@H](CC(N)=O)C(=O)N[C@H](C(=O)NCC(=O)N[C@@H](CO)C(=O)N[C@@H](CCC(=O)O)C(=O)N[C@H](C(=O)N[C@@H](Cc1ccc(O)cc1)C(N)=O)[C@@H](C)O)C(C)C)[C@@H](C)O, also called compound 27) [N^ε1-[(4S)-4-carboxy-4-(19-carboxynonadecanoylamino)butanoyl]-[Arg17,Pro21,Pro27,Glu35]-h-amylin] |
| 3.26 nM | {C20 diacid-γGlu}-KCNTATCATQRLAEFLRHSSPNFGAIPSSTPVGSNTY-NH2 (disulfide 2-7; SMILES CC[C@H](C)[C@H](NC(=O)[C@H](C)NC(=O)CNC(=O)[C@H](Cc1ccccc1)NC(=O)[C@H](CC(N)=O)NC(=O)[C@@H]1CCCN1C(=O)[C@H](CO)NC(=O)[C@H](CO)NC(=O)[C@H](Cc1c[nH]cn1)NC(=O)[C@H](CCCNC(=N)N)NC(=O)[C@H](CC(C)C)NC(=O)[C@H](Cc1ccccc1)NC(=O)[C@H](CCC(=O)O)NC(=O)[C@H](C)NC(=O)[C@H](CC(C)C)NC(=O)[C@H](CCCNC(=N)N)NC(=O)[C@H](CCC(N)=O)NC(=O)[C@@H](NC(=O)[C@H](C)NC(=O)[C@@H]1CSSC[C@H](NC(=O)[C@H](CCCCN)NC(=O)CC[C@H](NC(=O)CCCCCCCCCCCCCCCCCCC(=O)O)C(=O)O)C(=O)N[C@@H](CC(N)=O)C(=O)N[C@@H]([C@@H](C)O)C(=O)N[C@@H](C)C(=O)N[C@@H]([C@@H](C)O)C(=O)N1)[C@@H](C)O)C(=O)N1CCC[C@H]1C(=O)N[C@@H](CO)C(=O)N[C@@H](CO)C(=O)N[C@H](C(=O)N1CCC[C@H]1C(=O)N[C@H](C(=O)NCC(=O)N[C@@H](CO)C(=O)N[C@@H](CC(N)=O)C(=O)N[C@H](C(=O)N[C@@H](Cc1ccc(O)cc1)C(N)=O)[C@@H](C)O)C(C)C)[C@@H](C)O, also called compound 31) |
| 21.6 nM | {C20 diacid-γGlu}-KCNTATCATQRLAHFLRHSSPNFGAIPSSTNVGSETY-NH2 (disulfide 2-7; SMILES CC[C@H](C)[C@H](NC(=O)[C@H](C)NC(=O)CNC(=O)[C@H](Cc1ccccc1)NC(=O)[C@H](CC(N)=O)NC(=O)[C@@H]1CCCN1C(=O)[C@H](CO)NC(=O)[C@H](CO)NC(=O)[C@H](Cc1c[nH]cn1)NC(=O)[C@H](CCCNC(=N)N)NC(=O)[C@H](CC(C)C)NC(=O)[C@H](Cc1ccccc1)NC(=O)[C@H](Cc1c[nH]cn1)NC(=O)[C@H](C)NC(=O)[C@H](CC(C)C)NC(=O)[C@H](CCCNC(=N)N)NC(=O)[C@H](CCC(N)=O)NC(=O)[C@@H](NC(=O)[C@H](C)NC(=O)[C@@H]1CSSC[C@H](NC(=O)[C@H](CCCCN)NC(=O)CC[C@H](NC(=O)CCCCCCCCCCCCCCCCCCC(=O)O)C(=O)O)C(=O)N[C@@H](CC(N)=O)C(=O)N[C@@H]([C@@H](C)O)C(=O)N[C@@H](C)C(=O)N[C@@H]([C@@H](C)O)C(=O)N1)[C@@H](C)O)C(=O)N1CCC[C@H]1C(=O)N[C@@H](CO)C(=O)N[C@@H](CO)C(=O)N[C@H](C(=O)N[C@@H](CC(N)=O)C(=O)N[C@H](C(=O)NCC(=O)N[C@@H](CO)C(=O)N[C@@H](CCC(=O)O)C(=O)N[C@H](C(=O)N[C@@H](Cc1ccc(O)cc1)C(N)=O)[C@@H](C)O)C(C)C)[C@@H](C)O, also called compound 30) |
| 25.3 nM | K([AEEA-γGlu-C20 diacid])CNTATCATQRLANFLRHSSPNFGAIPSSTNVGSETY-NH2 (disulfide 2-7; N-terminus assumed; SMILES CC[C@H](C)[C@H](NC(=O)[C@H](C)NC(=O)CNC(=O)[C@H](Cc1ccccc1)NC(=O)[C@H](CC(N)=O)NC(=O)[C@@H]1CCCN1C(=O)[C@H](CO)NC(=O)[C@H](CO)NC(=O)[C@H](Cc1c[nH]cn1)NC(=O)[C@H](CCCNC(=N)N)NC(=O)[C@H](CC(C)C)NC(=O)[C@H](Cc1ccccc1)NC(=O)[C@H](CC(N)=O)NC(=O)[C@H](C)NC(=O)[C@H](CC(C)C)NC(=O)[C@H](CCCNC(=N)N)NC(=O)[C@H](CCC(N)=O)NC(=O)[C@@H](NC(=O)[C@H](C)NC(=O)[C@@H]1CSSC[C@H](NC(=O)[C@@H](N)CCCCNC(=O)COCCOCCNC(=O)CC[C@H](NC(=O)CCCCCCCCCCCCCCCCCCC(=O)O)C(=O)O)C(=O)N[C@@H](CC(N)=O)C(=O)N[C@@H]([C@@H](C)O)C(=O)N[C@@H](C)C(=O)N[C@@H]([C@@H](C)O)C(=O)N1)[C@@H](C)O)C(=O)N1CCC[C@H]1C(=O)N[C@@H](CO)C(=O)N[C@@H](CO)C(=O)N[C@H](C(=O)N[C@@H](CC(N)=O)C(=O)N[C@H](C(=O)NCC(=O)N[C@@H](CO)C(=O)N[C@@H](CCC(=O)O)C(=O)N[C@H](C(=O)N[C@@H](Cc1ccc(O)cc1)C(N)=O)[C@@H](C)O)C(C)C)[C@@H](C)O, also called compound 26) |
| 43.4 nM | K([AEEA-AEEA-γGlu-C20 diacid])CNTATCATQRLANFLRHSSPNFGAIPSSTNVGSETY-NH2 (disulfide 2-7; N-terminus assumed; SMILES CC[C@H](C)[C@H](NC(=O)[C@H](C)NC(=O)CNC(=O)[C@H](Cc1ccccc1)NC(=O)[C@H](CC(N)=O)NC(=O)[C@@H]1CCCN1C(=O)[C@H](CO)NC(=O)[C@H](CO)NC(=O)[C@H](Cc1c[nH]cn1)NC(=O)[C@H](CCCNC(=N)N)NC(=O)[C@H](CC(C)C)NC(=O)[C@H](Cc1ccccc1)NC(=O)[C@H](CC(N)=O)NC(=O)[C@H](C)NC(=O)[C@H](CC(C)C)NC(=O)[C@H](CCCNC(=N)N)NC(=O)[C@H](CCC(N)=O)NC(=O)[C@@H](NC(=O)[C@H](C)NC(=O)[C@@H]1CSSC[C@H](NC(=O)[C@@H](N)CCCCNC(=O)COCCOCCNC(=O)COCCOCCNC(=O)CC[C@H](NC(=O)CCCCCCCCCCCCCCCCCCC(=O)O)C(=O)O)C(=O)N[C@@H](CC(N)=O)C(=O)N[C@@H]([C@@H](C)O)C(=O)N[C@@H](C)C(=O)N[C@@H]([C@@H](C)O)C(=O)N1)[C@@H](C)O)C(=O)N1CCC[C@H]1C(=O)N[C@@H](CO)C(=O)N[C@@H](CO)C(=O)N[C@H](C(=O)N[C@@H](CC(N)=O)C(=O)N[C@H](C(=O)NCC(=O)N[C@@H](CO)C(=O)N[C@@H](CCC(=O)O)C(=O)N[C@H](C(=O)N[C@@H](Cc1ccc(O)cc1)C(N)=O)[C@@H](C)O)C(C)C)[C@@H](C)O, also called compound 25) |
